From the supplement of paper PMC9112550, “Optimization of the antimicrobial peptide Bac7 by deep mutational scanning” (BMC Biology, 2022)

Tested on: Escherichia coli TOP10
Test: shrunken log2 fold change of peptide-encoding DNA abundance (4.5 h post-induction vs induction); higher = less antimicrobial activity (less host growth inhibition)
Details: time post-induction: 4.5 h; library: site-saturation at positions 5, 18, 19, 20
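Note: peptides expressed intracellularly from a pBAD plasmid library in pooled LB shake-flask culture, induced with 0.3% L-arabinose, DNA abundance read by NGS, three biological replicates, DESeq2 with apeglm shrinkage.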

Sequence: RRIRDRPPRLPRPRPRPAIFPRP
- shrunken log2 fold change: 0.617

Sequence: RRIRPRPPRLPRPRPRPNHYPRP
- shrunken log2 fold change: -0.576

Sequence: RRIRKRPPRLPRPRPRPHLHPRP
- shrunken log2 fold change: 0.265

Sequence: RRIRIRPPRLPRPRPRPYSGPRP
- shrunken log2 fold change: 0.00727

Sequence: RRIRQRPPRLPRPRPRPSWPPRP
- shrunken log2 fold change: -0.0496

Sequence: RRIRRRPPRLPRPRPRPVNFPRP
- shrunken log2 fold change: -0.0106

Sequence: RRIRFRPPRLPRPRPRPRSSPRP
- shrunken log2 fold change: 0.12

Sequence: RRIRNRPPRLPRPRPRPEVNPRP
- shrunken log2 fold change: -0.0723

Sequence: RRIRLRPPRLPRPRPRPRPRPRP
- shrunken log2 fold change: 0.823

Sequence: RRIRTRPPRLPRPRPRPDFFPRP
- shrunken log2 fold change: 0.175

Sequence: RRIRARPPRLPRPRPRPLIDPRP
- shrunken log2 fold change: 0.647

Sequence: RRIRCRPPRLPRPRPRPRPLPRP
- shrunken log2 fold change: 0.319

Sequence: RRIRVRPPRLPRPRPRPQHPPRP
- shrunken log2 fold change: -0.0951

Sequence: RRIRGRPPRLPRPRPRPHTRPRP
- shrunken log2 fold change: 0.559

Sequence: RRIRDRPPRLPRPRPRPHTQPRP
- shrunken log2 fold change: -0.455

Sequence: RRIRVRPPRLPRPRPRPNSHPRP
- shrunken log2 fold change: -0.402

Sequence: RRIRDRPPRLPRPRPRPHWNPRP
- shrunken log2 fold change: -0.201

Sequence: RRIRHRPPRLPRPRPRPVFAPRP
- shrunken log2 fold change: 0.12

Sequence: RRIRYRPPRLPRPRPRPCAHPRP
- shrunken log2 fold change: -0.0966

Sequence: RRIRLRPPRLPRPRPRPSMLPRP
- shrunken log2 fold change: -0.965

Sequence: RRIRLRPPRLPRPRPRPDHTPRP
- shrunken log2 fold change: -0.0215

Sequence: RRIRTRPPRLPRPRPRPRSEPRP
- shrunken log2 fold change: 0.116

Sequence: RRIRDRPPRLPRPRPRPKIWPRP
- shrunken log2 fold change: 0.127

Sequence: RRIRDRPPRLPRPRPRPAAQPRP
- shrunken log2 fold change: 1.65

Sequence: RRIRHRPPRLPRPRPRPFEYPRP
- shrunken log2 fold change: -0.219

Sequence: RRIRERPPRLPRPRPRPHHSPRP
- shrunken log2 fold change: -0.603

Sequence: RRIRRRPPRLPRPRPRPRIWPRP
- shrunken log2 fold change: 0.666

Sequence: RRIRTRPPRLPRPRPRPVRMPRP
- shrunken log2 fold change: 0.148

Sequence: RRIRFRPPRLPRPRPRPMELPRP
- shrunken log2 fold change: 0.112

Sequence: RRIRDRPPRLPRPRPRPELWPRP
- shrunken log2 fold change: 2.17

Sequence: RRIRDRPPRLPRPRPRPWHWPRP
- shrunken log2 fold change: 0.00118

Sequence: RRIRKRPPRLPRPRPRPFDPPRP
- shrunken log2 fold change: -0.145

Sequence: RRIRYRPPRLPRPRPRPSRRPRP
- shrunken log2 fold change: 0.0397

Sequence: RRIRPRPPRLPRPRPRPHVPPRP
- shrunken log2 fold change: 3.25

Sequence: RRIRVRPPRLPRPRPRPWCKPRP
- shrunken log2 fold change: 0.0335

Sequence: RRIRPRPPRLPRPRPRPKHYPRP
- shrunken log2 fold change: -0.529

Sequence: RRIRQRPPRLPRPRPRPFTFPRP
- shrunken log2 fold change: -0.249

Sequence: RRIRGRPPRLPRPRPRPPMFPRP
- shrunken log2 fold change: 0.295

Sequence: RRIRFRPPRLPRPRPRPEMLPRP
- shrunken log2 fold change: 0.0583

Sequence: RRIRGRPPRLPRPRPRPDPCPRP
- shrunken log2 fold change: 0.624

Sequence: RRIRFRPPRLPRPRPRPTPFPRP
- shrunken log2 fold change: 0.266

Sequence: RRIRNRPPRLPRPRPRPGRLPRP
- shrunken log2 fold change: -0.0294

Sequence: RRIRPRPPRLPRPRPRPRGTPRP
- shrunken log2 fold change: 0.0776

Sequence: RRIRTRPPRLPRPRPRPLKVPRP
- shrunken log2 fold change: -0.221

Sequence: RRIRNRPPRLPRPRPRPTISPRP
- shrunken log2 fold change: -0.969

Sequence: RRIRYRPPRLPRPRPRPLKRPRP
- shrunken log2 fold change: -0.234

Sequence: RRIRGRPPRLPRPRPRPLGWPRP
- shrunken log2 fold change: 1.27

Sequence: RRIRSRPPRLPRPRPRPRENPRP
- shrunken log2 fold change: 0.468

Sequence: RRIRMRPPRLPRPRPRPSMDPRP
- shrunken log2 fold change: 0.0865

Sequence: RRIRSRPPRLPRPRPRPFYGPRP
- shrunken log2 fold change: -0.507

Sequence: RRIRARPPRLPRPRPRPEHFPRP
- shrunken log2 fold change: 0.126

Sequence: RRIRFRPPRLPRPRPRPCDMPRP
- shrunken log2 fold change: -0.00291

Sequence: RRIRDRPPRLPRPRPRPACEPRP
- shrunken log2 fold change: 0.58

Sequence: RRIRIRPPRLPRPRPRPVMKPRP
- shrunken log2 fold change: 0.012

Sequence: RRIRTRPPRLPRPRPRPWAEPRP
- shrunken log2 fold change: -0.0837

Sequence: RRIRTRPPRLPRPRPRPPAEPRP
- shrunken log2 fold change: 0.378

Sequence: RRIRARPPRLPRPRPRPPKKPRP
- shrunken log2 fold change: 0.342

Sequence: RRIRWRPPRLPRPRPRPKSEPRP
- shrunken log2 fold change: 0.502

Sequence: RRIRHRPPRLPRPRPRPTMNPRP
- shrunken log2 fold change: -0.173

Sequence: RRIRYRPPRLPRPRPRPNLHPRP
- shrunken log2 fold change: -0.821

Sequence: RRIRNRPPRLPRPRPRPKRYPRP
- shrunken log2 fold change: 0.0391

Sequence: RRIRCRPPRLPRPRPRPDWEPRP
- shrunken log2 fold change: -0.524

Sequence: RRIRSRPPRLPRPRPRPAEPPRP
- shrunken log2 fold change: -0.16

Sequence: RRIRTRPPRLPRPRPRPWCSPRP
- shrunken log2 fold change: -0.799

Sequence: RRIRYRPPRLPRPRPRPNGCPRP
- shrunken log2 fold change: -0.000687

Sequence: RRIRFRPPRLPRPRPRPVFGPRP
- shrunken log2 fold change: -0.17

Sequence: RRIRHRPPRLPRPRPRPVGNPRP
- shrunken log2 fold change: 0.0182

Sequence: RRIRDRPPRLPRPRPRPRELPRP
- shrunken log2 fold change: 0.0713

Sequence: RRIRSRPPRLPRPRPRPLHFPRP
- shrunken log2 fold change: -0.17

Sequence: RRIRCRPPRLPRPRPRPELHPRP
- shrunken log2 fold change: 0.0685

Sequence: RRIRPRPPRLPRPRPRPVFWPRP
- shrunken log2 fold change: 0.546

Sequence: RRIRVRPPRLPRPRPRPIVWPRP
- shrunken log2 fold change: -0.328

Sequence: RRIRDRPPRLPRPRPRPGLMPRP
- shrunken log2 fold change: -0.152

Sequence: RRIRVRPPRLPRPRPRPMTHPRP
- shrunken log2 fold change: -0.352

Sequence: RRIRVRPPRLPRPRPRPTQHPRP
- shrunken log2 fold change: 0.155

Sequence: RRIRCRPPRLPRPRPRPMMTPRP
- shrunken log2 fold change: 0.00323

Sequence: RRIRFRPPRLPRPRPRPTKEPRP
- shrunken log2 fold change: -0.0335

Sequence: RRIRERPPRLPRPRPRPEGWPRP
- shrunken log2 fold change: 0.668

Sequence: RRIRARPPRLPRPRPRPNACPRP
- shrunken log2 fold change: -0.175

Sequence: RRIRDRPPRLPRPRPRPQADPRP
- shrunken log2 fold change: 0.103

Sequence: RRIRSRPPRLPRPRPRPDNKPRP
- shrunken log2 fold change: -0.256

Sequence: RRIRRRPPRLPRPRPRPDMAPRP
- shrunken log2 fold change: 0.373

Sequence: RRIRERPPRLPRPRPRPHSPPRP
- shrunken log2 fold change: -0.372

Sequence: RRIRFRPPRLPRPRPRPCWKPRP
- shrunken log2 fold change: -0.0141

Sequence: RRIRWRPPRLPRPRPRPYMCPRP
- shrunken log2 fold change: 0.00232

Sequence: RRIRYRPPRLPRPRPRPIHYPRP
- shrunken log2 fold change: -0.655

Sequence: RRIRTRPPRLPRPRPRPFGGPRP
- shrunken log2 fold change: -0.0397

Sequence: RRIRTRPPRLPRPRPRPEKVPRP
- shrunken log2 fold change: -0.292

Sequence: RRIRWRPPRLPRPRPRPCQQPRP
- shrunken log2 fold change: -0.219

Sequence: RRIRIRPPRLPRPRPRPCPAPRP
- shrunken log2 fold change: -0.247

Sequence: RRIRQRPPRLPRPRPRPFQLPRP
- shrunken log2 fold change: -0.00805

Sequence: RRIRGRPPRLPRPRPRPKQGPRP
- shrunken log2 fold change: 0.524

Sequence: RRIRRRPPRLPRPRPRPNIYPRP
- shrunken log2 fold change: -0.252

Sequence: RRIRGRPPRLPRPRPRPRCNPRP
- shrunken log2 fold change: 0.551

Sequence: RRIRFRPPRLPRPRPRPPYRPRP
- shrunken log2 fold change: 0.0239

Sequence: RRIRPRPPRLPRPRPRPLKPPRP
- shrunken log2 fold change: 0.0408

Sequence: RRIRLRPPRLPRPRPRPNIPPRP
- shrunken log2 fold change: -0.823

Sequence: RRIRMRPPRLPRPRPRPNYWPRP
- shrunken log2 fold change: -0.0168

Sequence: RRIRSRPPRLPRPRPRPVRGPRP
- shrunken log2 fold change: 0.573

Sequence: RRIRGRPPRLPRPRPRPRRHPRP
- shrunken log2 fold change: 0.612

Sequence: RRIRFRPPRLPRPRPRPYAFPRP
- shrunken log2 fold change: -0.193

Sequence: RRIRDRPPRLPRPRPRPYMLPRP
- shrunken log2 fold change: -0.153

Sequence: RRIRDRPPRLPRPRPRPMSYPRP
- shrunken log2 fold change: -0.0376

Sequence: RRIRPRPPRLPRPRPRPEAKPRP
- shrunken log2 fold change: 1.03

Sequence: RRIRLRPPRLPRPRPRPGRWPRP
- shrunken log2 fold change: 0.411

Sequence: RRIRLRPPRLPRPRPRPEYSPRP
- shrunken log2 fold change: -0.279

Sequence: RRIRKRPPRLPRPRPRPTGHPRP
- shrunken log2 fold change: 0.348

Sequence: RRIRYRPPRLPRPRPRPRTDPRP
- shrunken log2 fold change: -0.0428

Sequence: RRIRMRPPRLPRPRPRPMWVPRP
- shrunken log2 fold change: 0.0332

Sequence: RRIRHRPPRLPRPRPRPCALPRP
- shrunken log2 fold change: -0.339

Sequence: RRIRVRPPRLPRPRPRPIMVPRP
- shrunken log2 fold change: -0.219

Sequence: RRIRKRPPRLPRPRPRPWAYPRP
- shrunken log2 fold change: -0.228

Sequence: RRIRLRPPRLPRPRPRPMCWPRP
- shrunken log2 fold change: 0.0663

Sequence: RRIRYRPPRLPRPRPRPPLDPRP
- shrunken log2 fold change: 0.443

Sequence: RRIRKRPPRLPRPRPRPNQAPRP
- shrunken log2 fold change: -0.171

Sequence: RRIRVRPPRLPRPRPRPDMWPRP
- shrunken log2 fold change: -0.499

Sequence: RRIRPRPPRLPRPRPRPASCPRP
- shrunken log2 fold change: 0.186

Sequence: RRIRVRPPRLPRPRPRPVVDPRP
- shrunken log2 fold change: -0.0784

Sequence: RRIRDRPPRLPRPRPRPDIHPRP
- shrunken log2 fold change: -0.0156

Sequence: RRIRQRPPRLPRPRPRPFNGPRP
- shrunken log2 fold change: -0.3

Sequence: RRIRERPPRLPRPRPRPAFEPRP
- shrunken log2 fold change: -0.0208

Sequence: RRIRHRPPRLPRPRPRPYRSPRP
- shrunken log2 fold change: 0.0215

Sequence: RRIRDRPPRLPRPRPRPQPDPRP
- shrunken log2 fold change: 0.177

Sequence: RRIRPRPPRLPRPRPRPLWCPRP
- shrunken log2 fold change: -0.158

Sequence: RRIRDRPPRLPRPRPRPVYSPRP
- shrunken log2 fold change: 0.0356

Sequence: RRIRQRPPRLPRPRPRPGFSPRP
- shrunken log2 fold change: 0.00737

Sequence: RRIRVRPPRLPRPRPRPLVPPRP
- shrunken log2 fold change: -0.0493

Sequence: RRIRWRPPRLPRPRPRPVPAPRP
- shrunken log2 fold change: 0.532

Sequence: RRIRKRPPRLPRPRPRPWKCPRP
- shrunken log2 fold change: -0.0018

Sequence: RRIRPRPPRLPRPRPRPERAPRP
- shrunken log2 fold change: 1.17

Sequence: RRIRARPPRLPRPRPRPRVVPRP
- shrunken log2 fold change: 0.624

Sequence: RRIRERPPRLPRPRPRPNYYPRP
- shrunken log2 fold change: -0.893

Sequence: RRIRCRPPRLPRPRPRPSLDPRP
- shrunken log2 fold change: -0.203

Sequence: RRIRMRPPRLPRPRPRPAAIPRP
- shrunken log2 fold change: 0.456

Sequence: RRIRERPPRLPRPRPRPKYIPRP
- shrunken log2 fold change: -0.0434

Sequence: RRIRERPPRLPRPRPRPDSLPRP
- shrunken log2 fold change: -0.391

Sequence: RRIRQRPPRLPRPRPRPSMTPRP
- shrunken log2 fold change: -0.285

Sequence: RRIRCRPPRLPRPRPRPQNCPRP
- shrunken log2 fold change: 0.137

Sequence: RRIRVRPPRLPRPRPRPGQAPRP
- shrunken log2 fold change: -0.0106

Sequence: RRIRMRPPRLPRPRPRPTMRPRP
- shrunken log2 fold change: 1.4

Sequence: RRIRERPPRLPRPRPRPFHDPRP
- shrunken log2 fold change: -0.291

Sequence: RRIRHRPPRLPRPRPRPHPGPRP
- shrunken log2 fold change: -0.0998

Sequence: RRIRLRPPRLPRPRPRPLQFPRP
- shrunken log2 fold change: 0.0239

Sequence: RRIRCRPPRLPRPRPRPKWGPRP
- shrunken log2 fold change: 0.496

Sequence: RRIRQRPPRLPRPRPRPCATPRP
- shrunken log2 fold change: -0.0476

Sequence: RRIRKRPPRLPRPRPRPGDKPRP
- shrunken log2 fold change: 0.0976

Sequence: RRIRERPPRLPRPRPRPRWDPRP
- shrunken log2 fold change: 0.143

Sequence: RRIRKRPPRLPRPRPRPTREPRP
- shrunken log2 fold change: 0.48

Sequence: RRIRIRPPRLPRPRPRPYGSPRP
- shrunken log2 fold change: -0.126

Sequence: RRIRNRPPRLPRPRPRPFDYPRP
- shrunken log2 fold change: -0.262
